To fix the notation:
B1: Structural maintenance of chromosomes protein 6 (Homo sapiens), Q96SB8 (parent)
chain: MAKRKEENFSSPKNAKRPRQEELEDFDKDGDEDECKGTTLTAAEVGIIESIHLKNFMCHSMLGPFKFGSNVNFVVGNNGSGKSAVLTALIVGLGGRAVATNRGSSLKGFVKDGQNSADISITLRNRGDDAFKASVYGNSILIQQHISIDGSRSYKLKSATGSVVSTRKEELIAILDHFNIQVDNPVSVLTQEMSKQFLQSKNEGDKYKFFMKATQLEQMKEDYSYIMETKERTKEQIHQGEERLTELKRQCVEKEERFQSIAGLSTMKTNLESLKHEMAWAVVNEIEKQLNAIRDNIKIGEDRAARLDRKMEEQQVRLNEAEQKYKDIQDKLEKISEETNARAPECMALKADVVAKKRAYNEAEVLYNRSLNEYKALKKDDEQLCKRIEELKKSTDQSLEPERLERQKKISWLKERVKAFQNQENSVNQEIEQFQQAIEKDKEEHGKIKREELDVKHALSYNQRQLKELKDSKTDRLKRFGPNVPALLEAIDDAYRQGHFTYKPVGPLGACIHLRDPELALAIESCLKGLLQAYCCHNHADERVLQALMKRFYLPGTSRPPIIVSEFRNEIYDVRHRAAYHPDFPTVLTALEIDNAVVANSLIDMRGIETVLLIKNNSVARAVMQSQKPPKNCREAFTADGDQVFAGRYYSSENTRPKFLSRDVDSEISDLENEVENKTAQILNLQQHLSALEKDIKHNEELLKRCQLHYKELKMKIRKNISEIRELENIEEHQSVDIATLEDEAQENKSKMKMVEEHMEQQKENMEHLKSLKIEAENKYDAIKFKINQLSELADPLKDELNLADSEVDNQKRGKRHYEEKQKEHLDTLNKKKRELDMKEKELEEKMSQARQICPERIEVEKSASILDKEINRLRQKIQAEHASHGDREEIMRQYQEARETYLDLDSKVRTLKKFIKLLGEIMEHRFKTYQQFRRCLTLRCKLYFDNLLSQRAYCGKMNFDHKNETLSISVQPGEGNKAAFNDMRALSGGERSFSTVCFILSLWSIAESPFRCLDEFDVYMDMVNRRIAMDLILKMADSQRFRQFILLTPQSMSSLPSSKLIRILRMSDPERGQTTLPFRPVTQEEDDDQR
B2: Structural maintenance of chromosomes protein 5 (Schizosaccharomyces pombe (strain ATCC 38366 / 972)), O13710 (parent)
chain: MDGLRPSKRRKSNPLYSDYALGSIVRIKLVNFVTYDYCELFPGPYLNLIIGPNGTGKSTIVSAICIGLGWPPKLLGRAKEAREFIKYGKNTATIEIEMKYRDDETVTITRQISQDKSSSFSINREACATSSITSLMDTFNVQLNNLCHFLPQDRVAEFAQLDPYSRLMETERAIDHEGLLPAHEKLIDLRKREREILQNKNQGQSTLNSLKDRQQALEKEVNIFKEREKIKSYIEMLGLAKMLVIYREKTNVFNQLRADKKKLKKDLKDLVEEFQPILDKGEELRSDLKLKDDTFNDYSSASMELNTSNLRARASFSNFMENEKKLYEKVNTNRTLLRNANLTLNEAQQSVKSLTERQGPRPSDNGVQDLQEKMQEVNAEKLQHENEKLESSHELGSIRTLKAQKLIDLDNIKRELSYYNDATKRKLDFMSSAPGWEDAYQTYQLLKEYESAFEAPAYGPIYMNLKCKEKGFAALIEGFFRTDTFRTFIMSNYNDYLKLMDLITSKTKYTPTIREFSSERKKKIEDFEPPCSREKLQSFGFDGYVIDFLEGPEVVLVALCHMLKIHQIPIAKRELPPASVNALNNFRLANGDPVLKTYLAGSSIHLVFRSAYGDREITRRTDPLPSRSIYFSENVEMDLVKRKEEQLNAQLSQLENLQNEERKLQEKVNEHESLLSRTNDILSTLRKERDEKLIPIHEWQQLQERIEHQTLLLRQREKVPEQFAAEIEKNEDIRKENFEALMNSVLKVKENSIKATNNFEKMLGSRLNVIEAKYKLEKHEMDANQVNARLTEVQDRLKDITDKLASAREDAMSLYGSVVDSLQTQSSDRQTAITELNEEFATSSEVDNKISIEETKLKFMNVNSYVMEQYDARKKEIEELESKMSDFDQSVEELQDEMNSIKEDWVSKLEENVQCISDRFSKGMSGMGYAGEVRLGKSDDYDKWYIDILVQFREEEGLQKLTGQRQSGGERSVSTIMYLLSLQGLAIAPFRIVDEINQGMDPRNERVVHRHIVNSVCDNAVSQYFLVTPKLLPDLTYHRNLKVLCICNGAWLPATFRTSLSTYFEKLKKSALISSS
partner: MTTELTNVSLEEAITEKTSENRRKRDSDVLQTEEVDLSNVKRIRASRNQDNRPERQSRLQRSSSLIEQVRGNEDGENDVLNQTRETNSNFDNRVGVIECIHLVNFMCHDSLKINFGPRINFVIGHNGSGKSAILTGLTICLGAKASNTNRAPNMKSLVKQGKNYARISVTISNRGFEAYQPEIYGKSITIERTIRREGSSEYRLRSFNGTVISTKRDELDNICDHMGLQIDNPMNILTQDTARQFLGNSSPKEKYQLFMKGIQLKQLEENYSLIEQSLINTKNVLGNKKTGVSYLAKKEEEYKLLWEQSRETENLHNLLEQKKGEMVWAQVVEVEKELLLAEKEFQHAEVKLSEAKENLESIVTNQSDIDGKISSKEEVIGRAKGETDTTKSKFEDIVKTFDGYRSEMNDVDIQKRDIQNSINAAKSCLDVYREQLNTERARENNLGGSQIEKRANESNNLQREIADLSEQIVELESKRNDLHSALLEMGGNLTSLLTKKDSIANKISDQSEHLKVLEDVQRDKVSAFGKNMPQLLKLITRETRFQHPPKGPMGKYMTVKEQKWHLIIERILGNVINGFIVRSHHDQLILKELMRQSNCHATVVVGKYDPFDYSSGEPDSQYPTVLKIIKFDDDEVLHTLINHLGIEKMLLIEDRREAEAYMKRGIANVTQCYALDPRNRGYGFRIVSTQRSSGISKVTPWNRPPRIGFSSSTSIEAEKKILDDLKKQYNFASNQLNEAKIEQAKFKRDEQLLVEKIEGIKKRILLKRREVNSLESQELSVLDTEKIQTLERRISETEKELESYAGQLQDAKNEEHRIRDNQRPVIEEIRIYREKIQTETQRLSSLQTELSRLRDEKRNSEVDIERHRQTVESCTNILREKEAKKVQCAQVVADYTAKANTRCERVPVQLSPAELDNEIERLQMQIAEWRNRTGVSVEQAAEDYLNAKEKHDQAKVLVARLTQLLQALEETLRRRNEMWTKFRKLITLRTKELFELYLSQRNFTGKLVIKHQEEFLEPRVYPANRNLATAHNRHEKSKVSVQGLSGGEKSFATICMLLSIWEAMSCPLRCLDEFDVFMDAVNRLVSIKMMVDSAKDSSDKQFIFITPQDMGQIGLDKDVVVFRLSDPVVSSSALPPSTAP

The variants in the first test derive from B1. To be noted: with smc5_human SMC5, Q8IY18.
Chain of smc5_human SMC5, Q8IY18 (Q8IY18 whole entry): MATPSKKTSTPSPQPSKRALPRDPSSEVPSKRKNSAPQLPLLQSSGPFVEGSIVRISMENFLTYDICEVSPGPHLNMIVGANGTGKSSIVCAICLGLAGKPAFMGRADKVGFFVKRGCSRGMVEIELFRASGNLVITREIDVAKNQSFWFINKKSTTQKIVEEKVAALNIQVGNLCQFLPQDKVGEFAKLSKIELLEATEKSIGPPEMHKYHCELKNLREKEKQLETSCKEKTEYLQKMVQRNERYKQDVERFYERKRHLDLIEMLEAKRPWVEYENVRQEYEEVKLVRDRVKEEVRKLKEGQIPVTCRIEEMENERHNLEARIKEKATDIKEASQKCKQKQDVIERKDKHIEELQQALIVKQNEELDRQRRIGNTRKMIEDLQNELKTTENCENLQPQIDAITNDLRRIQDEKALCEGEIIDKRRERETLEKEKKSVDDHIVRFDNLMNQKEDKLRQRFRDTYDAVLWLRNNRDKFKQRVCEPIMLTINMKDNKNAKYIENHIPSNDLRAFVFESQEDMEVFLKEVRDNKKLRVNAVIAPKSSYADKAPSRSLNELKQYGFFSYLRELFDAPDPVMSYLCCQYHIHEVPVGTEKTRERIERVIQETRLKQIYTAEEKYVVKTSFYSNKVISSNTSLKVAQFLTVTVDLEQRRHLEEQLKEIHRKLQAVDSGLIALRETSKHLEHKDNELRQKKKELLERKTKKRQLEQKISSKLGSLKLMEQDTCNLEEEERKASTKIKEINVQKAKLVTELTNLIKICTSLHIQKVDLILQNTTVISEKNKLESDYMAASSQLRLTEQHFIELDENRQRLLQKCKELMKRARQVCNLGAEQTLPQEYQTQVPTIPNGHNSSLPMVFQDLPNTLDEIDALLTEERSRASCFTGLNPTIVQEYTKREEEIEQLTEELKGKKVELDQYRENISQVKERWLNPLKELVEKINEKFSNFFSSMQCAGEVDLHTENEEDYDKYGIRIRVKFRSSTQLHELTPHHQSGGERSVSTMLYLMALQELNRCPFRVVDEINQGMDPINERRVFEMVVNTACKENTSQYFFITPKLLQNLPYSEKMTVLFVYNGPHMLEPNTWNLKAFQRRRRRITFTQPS
For G506R, the “effect of a mutation on the interaction” value was “decreasing interaction”.

Variants of B2 are the subject of a further test. To be noted: with smc6_schpo smc6, P53692.
As to G540R, the “effect of a mutation on the interaction” value was “decreasing interaction”.
